In patent publication EP0901379B1:

Biological target: human MIP-1α (human) (UniProt P10147)
Test: 125I-MIP-1α bound to cells with 200X molar excess M-T1, Exp. 1

UniProt P10147, sequence (P10147 24-92 limits assumed): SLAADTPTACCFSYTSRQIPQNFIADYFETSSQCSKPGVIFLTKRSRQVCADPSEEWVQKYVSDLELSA

## myxoma T1 protein (M-T1)
  Surface Bound MIP-1α: 978 cpm
